{"source": "patent US7018836", "target": "Drosophila RNA polymerase II large subunit, P04052", "sequence (P04052 whole entry)": "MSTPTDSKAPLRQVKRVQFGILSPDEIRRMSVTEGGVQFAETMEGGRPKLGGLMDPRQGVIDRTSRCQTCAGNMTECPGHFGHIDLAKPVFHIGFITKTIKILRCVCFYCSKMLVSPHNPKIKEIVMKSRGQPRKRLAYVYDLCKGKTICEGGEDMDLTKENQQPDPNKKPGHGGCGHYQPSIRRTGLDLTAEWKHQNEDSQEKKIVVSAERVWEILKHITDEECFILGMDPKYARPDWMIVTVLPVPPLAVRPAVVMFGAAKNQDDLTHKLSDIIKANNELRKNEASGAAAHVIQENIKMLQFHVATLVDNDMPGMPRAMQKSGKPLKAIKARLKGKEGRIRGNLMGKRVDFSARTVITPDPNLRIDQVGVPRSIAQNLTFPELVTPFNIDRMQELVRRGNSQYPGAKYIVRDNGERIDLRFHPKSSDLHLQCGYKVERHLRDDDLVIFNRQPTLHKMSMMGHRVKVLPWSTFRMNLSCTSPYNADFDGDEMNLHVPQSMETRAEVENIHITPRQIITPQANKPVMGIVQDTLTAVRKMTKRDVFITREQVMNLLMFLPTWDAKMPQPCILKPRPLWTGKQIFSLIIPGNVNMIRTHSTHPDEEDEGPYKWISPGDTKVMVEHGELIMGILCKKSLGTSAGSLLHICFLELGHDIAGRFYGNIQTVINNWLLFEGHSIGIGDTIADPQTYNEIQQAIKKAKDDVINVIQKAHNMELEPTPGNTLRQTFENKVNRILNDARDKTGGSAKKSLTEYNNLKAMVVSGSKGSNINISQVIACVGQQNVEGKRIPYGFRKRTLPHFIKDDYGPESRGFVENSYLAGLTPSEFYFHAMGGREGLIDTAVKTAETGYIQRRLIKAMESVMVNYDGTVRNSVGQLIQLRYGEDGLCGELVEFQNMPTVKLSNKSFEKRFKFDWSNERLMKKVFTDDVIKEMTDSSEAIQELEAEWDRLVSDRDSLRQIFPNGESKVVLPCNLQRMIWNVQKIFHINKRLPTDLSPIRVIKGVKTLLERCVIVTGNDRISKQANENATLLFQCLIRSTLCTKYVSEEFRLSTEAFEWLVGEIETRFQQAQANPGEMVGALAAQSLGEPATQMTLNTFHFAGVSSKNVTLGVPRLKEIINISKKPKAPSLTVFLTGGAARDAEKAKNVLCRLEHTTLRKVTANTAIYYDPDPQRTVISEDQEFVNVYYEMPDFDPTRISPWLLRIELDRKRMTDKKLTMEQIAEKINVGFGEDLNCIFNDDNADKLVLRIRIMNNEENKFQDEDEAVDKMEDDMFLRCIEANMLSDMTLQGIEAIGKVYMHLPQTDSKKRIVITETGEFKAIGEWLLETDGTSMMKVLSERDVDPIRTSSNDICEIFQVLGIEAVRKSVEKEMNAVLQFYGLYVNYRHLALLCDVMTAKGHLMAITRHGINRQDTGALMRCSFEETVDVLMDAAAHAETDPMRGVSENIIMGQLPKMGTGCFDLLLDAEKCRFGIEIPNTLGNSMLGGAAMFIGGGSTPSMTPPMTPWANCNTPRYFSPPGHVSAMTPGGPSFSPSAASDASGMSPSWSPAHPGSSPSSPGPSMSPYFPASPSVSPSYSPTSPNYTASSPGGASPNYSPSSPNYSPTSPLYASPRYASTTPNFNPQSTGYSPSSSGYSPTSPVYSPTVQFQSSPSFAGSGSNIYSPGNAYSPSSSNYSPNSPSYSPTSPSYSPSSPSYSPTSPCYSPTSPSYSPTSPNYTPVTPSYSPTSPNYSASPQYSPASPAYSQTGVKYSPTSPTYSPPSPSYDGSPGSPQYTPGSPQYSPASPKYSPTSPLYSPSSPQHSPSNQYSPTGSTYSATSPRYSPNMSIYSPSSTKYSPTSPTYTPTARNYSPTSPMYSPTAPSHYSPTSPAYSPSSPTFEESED"}
{"protein": "Drosophila P-TEFb (protein) chain 1: MAHMSHMLQQPSGSTPSNVGSSSSRTMSLMEKQKYIEDYDFPYCDESNKYEKVAKIGQGTFGEVFKAREKKGNKKFVAMKKVLMDNEKEGFPITALREIRILQLLKHENVVNLIEICRTKATATNGYRSTFYLVFDFCEHDLAGLLSNMNVKFSLGEIKKVMQQLLNGLYYIHSNKILHRDMKAANVLITKHGILKLADFGLARAFSIPKNESKNRYTNRVVTLWYRPPELLLGDRNYGPPVDMWGAGCIMAEMWTRSPIMQGNTEQQQLTFISQLCGSFTPDVWPGVEELELYKSIELPKNQKRRVKERLRPYVKDQTGCDLLDKLLTLDPKKRIDADTALNHDFFWTDPMPSDLSKMLSQHLQSMFEYLAQPRRSNQMRNYHQQLTTMNQKPQDNSMIDRVW chain 2: MSLLATPMPQAATASSSSSASAAASASGIPITANNNLPFEKDKIWYFSNDQLANLPSRRCGIKGDDELQYRQMTAYLIQEMGQRLQVSQLCINTAIVYMHRFYAFHSFTHFHRNSMASASLFLAAKVEEQPRKLEHVIRAANKCLPPTTEQNYAELAQELVFNENVLLQTLGFDVAIDHPHTHVVRTCQLVKACKDLAQTSYFLASNSLHLTSMCLQYRPTVVACFCIYLACKWSRWEIPQSTEGKHWFYYVDKTVSLDLLKQLTDEFIAIYEKSPARLKSKLNSIKAIAQGASNRTANSKDKPKEDWKITEMMKGYHSNITTPPELLNGNDSRDRDRDRERERERERDPSSLLPPPAMVPQQRRQDGGHQRSSSVSGVPGSSSSSSSSSHKMPNYPGGMPPEAHPDHKSKQPGYNNRMPSSHQRSSSSGLGSSGSGSQHSSSSSSSSSQQPGRPSMPVDYHKSSRGMPPVGVGMPPHGSHKMTSGSKPQQPQQQPVPHPSASNSSASGMSSKDKSQSNKMYPNAPPPYSNSAPQNPLMSRGGYPGASNGSQPPPPAGYGGHRSKSGSTVHGMPHFEQQLPYSQSQSYGHMQQQPVPQSQQQQMPPEASQHSLQSKNSLFSPEWPDIKKEPMSQSQPQLFNGLLPPPAPPGHDYKLNSHPRDKESPKKERLTPTKKDKHRPVMPPMGSGNSSSGSGSSKPMLPPHKKQIPHGGDLLTNPGESGSLKRPNEISGSQYGLNKLDEIDNSNMPREKLRKLDTTTGLPTYPNYEEKHTPLNMSNGIETTPDLVRSLLKESLCPSNASLLKPDALTMPGLKPPAELLEPMPAPATIKKEQGITPMTSLASGPAPMDLEVPTKQAGEIKEESSSKSEKKKKKDKHKHKEKDKSKDKTEKEERKKHKRDKQKDRSGSGGSKDSSLPNEPLKMVIKNPNGSLQAGASAPIKLKISKNKVEPNNYSAAAGLPGAIGYGLPPTTATTTSASIGAAAPVLPPYGAGGGGYSSSGGSSSGGSSKKKHSDRDRDKESKKNKSQDYAKYNGAGGGIFNPLGGAGAAPNMSGGMGAPMSTAVPPSMLLAPTGAVPPSAAGLAPPPMPVYNKK", "values": [{"measurement": "CTD kinase assay (phosphate incorporation, mobility shift)", "result": "incubation of P-TEFb with intact RNA polymerase II caused the incorporation of phosphate into the large subunit and a shift to the IIo form"}, {"measurement": "incorporation of label into the large subunit after chymotrypsin truncation of the CTD", "result": "the CTD-less polymerase (20 min digestion) was not detectably phosphorylated"}]}
